Drawing on patent US20080286287A1, this text covers reduction in binding (against native IGFBP-2) for one substance.

This experiment concerns the target aggrecan. The experiment can be described thus: solid-phase binding assay: aggrecan-coated wells, 10 ng/well IGFBP-2, detected with 125I-IGF-I.

Consider “HBD-IGFBP-2 mutant (179PKKLRP184 mutated to 179PNNLAP184) (from UniProt P18065 37-325)”, for which the reduction in binding (against native IGFBP-2) turned out to be 75%.
